Measurements from the supplement of paper PMC11246515.
± gives the standard deviation of the averaged measurements.

Test: total protein half-life in vivo (active degradation + dilution); higher = more stable protein
[1] = E. coli NCM3722 delta-clpP, growth: N-lim chemostat, doubling time 6 h
[2] = E. coli NCM3722 delta-hslV, growth: N-lim chemostat, doubling time 6 h
[3] = E. coli NCM3722 delta-lon, growth: N-lim chemostat, doubling time 6 h
[4] = E. coli NCM3722 delta-smpB, growth: N-lim chemostat, doubling time 6 h
[5] = wild type E. coli NCM3722, growth: C-lim chemostat, doubling time 3 h
[6] = wild type E. coli NCM3722, growth: C-lim chemostat, doubling time 6 h
[7] = wild type E. coli NCM3722, growth: C-lim chemostat, doubling time 12 h
[8] = wild type E. coli NCM3722, growth: N-lim chemostat, doubling time 6 h
[9] = wild type E. coli NCM3722, growth: N-lim chemostat, doubling time 12 h
[10] = wild type E. coli NCM3722, growth: P-lim chemostat, doubling time 6 h
[11] = wild type E. coli NCM3722, growth: P-lim chemostat, doubling time 12 h
[12] = E. coli NCM3722 delta-clpP delta-lon delta-hslV, growth: N-lim chemostat, doubling time 6 h

Sequence	total protein half-life in vivo [1]	total protein half-life in vivo [2]	total protein half-life in vivo [3]	total protein half-life in vivo [4]	total protein half-life in vivo [5]	total protein half-life in vivo [6]	total protein half-life in vivo [7]	total protein half-life in vivo [8]	total protein half-life in vivo [9]	total protein half-life in vivo [10]	total protein half-life in vivo [11]	total protein half-life in vivo [12]
MYDNLKSLGITNPEEIDRYSLRQEANNDILKIYFQKDKGEFFAKSVKFKYPRQRKTVVADGVGQGYKEVQEISPNLRYIIDELDQICQRDRSEVDLKRKILDDLRHLESVVTNKISEIEADLEKLTRK	4.32 ± 0.1 h	4.18 ± 0.52 h	4.82 ± 0.08 h	3.61 ± 0.31 h	3.26 ± 0.19 h	5.55 ± 0.13 h	8.4 ± 0.45 h	3.77 ± 0.094 h	6.16 ± 0.23 h	5.45 ± 1.6 h	12 ± 0.17 h	
MTNSNRIKLTWISFLSYALTGALVIVTGMVMGNIADYFNLPVSSMSNTFTFLNAGILISIFLNAWLMEIVPLKTQLRFGFLLMVLAVAGLMFSHSLALFSAAMFILGVVSGITMSIGTFLVTQMYEGRQRGSRLLFTDSFFSMAGMIFPMIAAFLLARSIEWYWVYACIGLVYVAIFILTFGCEFPALGKHAPKTDAPVEKEKWGIGVLFLSVAALCYILGQLGFISWVPEYAKGLGMSLNDAGTLVSNFWMSYMVGMWAFSFILRFFDLQRILTVLAGLAAILMYVFNTGTPAHMAWSILALGFFSSAIYTTIITLGSQQTKVPSPKLVNFVLTCGTIGTMLTFVVTGPIVEHSGPQAALLTANGLYAVVFVMCFLLGFVSRHRQHNTLTSH	5.55 h	5.855 ± 0.027 h	5.47 ± 0.58 h	5.72 ± 0.19 h				6.5 ± 0.71 h		6.42 ± 1.5 h	13.3 h	5.5 h
MPHSLFSTDTDLTAENLLRLPAEFGCPVWVYDAQIIRRQIAALKQFDVVRFAQKACSNIHILRLMREQGVKVDSVSLGEIERALAAGYNPQTHPDDIVFTADVIDQATLERVSELQIPVNAGSVDMLDQLGQVSPGHRVWLRVNPGFGHGHSQKTNTGGENSKHGIWYTDLPAALDVIQRHHLQLVGIHMHIGSGVDYAHLEQVCGAMVRQVIEFGQDLQAISAGGGLSVPYQQGEEAVDTEHYYGLWNAAREQIARHLGHPVKLEIEPGRFLVAQSGVLITQVRSVKQMGSRHFVLVDAGFNDLMRPAMYGSYHHISALAADGRSLEHAPTVETVVAGPLCESGDVFTQQEGGNVETRALPEVKAGDYLVLHDTGAYGASMSSNYNSRPLLPEVLFDNGQARLIRRRQTIEELLALELL	2.81 ± 0.36 h	2.41 ± 0.37 h		2.06 ± 0.69 h	2.91 ± 0.14 h	4.76 ± 0.92 h	8.09 ± 0.86 h	2.53 ± 0.12 h	3.6 ± 0.33 h	5.29 ± 0.3 h	9.66 ± 0.16 h	3.43 ± 0.39 h
MSKRKVAIIGSGNIGTDLMIKILRHGQHLEMAVMVGIDPQSDGLARARRMGVATTHEGVIGLMNMPEFADIDIVFDATSAGAHVKNDAALREAKPDIRLIDLTPAAIGPYCVPVVNLEANVDQLNVNMVTCGGQATIPMVAAVSRVARVHYAEIIASIASKSAGPGTRANIDEFTETTSRAIEVVGGAAKGKAIIVLNPAEPPLMMRDTVYVLSDEASQDDIEASINEMAEAVQAYVPGYRLKQRVQFEVIPQDKPVNLPGVGQFSGLKTAVWLEVEGAAHYLPAYAGNLDIMTSSALATAEKMAQSLARKAGEAA	5.24 ± 2.6 h	2.65 ± 0.48 h	2.43 h	2.21 ± 0.73 h	2.71 ± 0.36 h	4.45 h	6.77 ± 2.3 h	5.59 h	4.45 h	3.53 h	6.2 ± 0.2 h	4.09 ± 1.4 h
MRIRYGWELALAALLVIEIVAFGAINPRMLDLNMLLFSTSDFICIGIVALPLTMVIVSGGIDISFGSTIGLCAIALGVLFQSGVPMPLAILLTLLLGALCGLINAGLIIYTKVNPLVITLGTLYLFAGSALLLSGMAGATGYEGIGGFPMAFTDFANLDVLGLPVPLIIFLICLLVFWLWLHKTHAGRNVFLIGQSPRVALYSAIPVNRTLCALYAMTGLASAVAAVLLVSYFGSARSDLGASFLMPAITAVVLGGANIYGGSGSIIGTAIAVLLVGYLQQGLQMAGVPNQVSSALSGALLIVVVVGRSVSLHRQQIKEWLARRANNPLP [P0AFS1]						6.11 h	13.4 h					
MGKAVIAIHGGAGAISRAQMSLQQELRYIEALSAIVETGQKMLEAGESALDVVTEAVRLLEECPLFNAGIGAVFTRDETHELDACVMDGNTLKAGAVAGVSHLRNPVLAARLVMEQSPHVMMIGEGAENFAFARGMERVSPEIFSTSLRYEQLLAARKEGATVLDHSGAPLDEKQKMGTVGAVALDLDGNLAAATSTGGMTNKLPGRVGDSPLVGAGCYANNASVAVSCTGTGEVFIRALAAYDIAALMDYGGLSLAEACERVVMEKLPALGGSGGLIAIDHEGNVALPFNTEGMYRAWGYAGDTPTTGIYREKGDTVATQ	3.77 ± 0.08 h	3.58 ± 0.043 h	3.62 ± 0.16 h	3.16 ± 0.25 h	2.78 ± 0.19 h	4.99 ± 0.29 h	11.2 ± 4.6 h	3.47 ± 0.42 h	4.78 ± 0.12 h	4.75 ± 0.052 h	8.26 ± 0.14 h	4.9 ± 0.24 h
MSVVPVADVLQGRVAVDSEVTVRGWVRTRRDSKAGISFLAVYDGSCFDPVQAVINNSLPNYNEDVLRLTTGCSVIVTGKVVASPGQGQQFEIQASKVEVAGWVEDPDTYPMAAKRHSIEYLREVAHLRPRTNLIGAVARVRHTLAQALHRFFNEQGFFWVSTPLITASDTEGAGEMFRVSTLDLENLPRNDQGKVDFDKDFFGKESFLTVSGQLNGETYACALSKIYTFGPTFRAENSNTSRHLAEFWMLEPEVAFANLNDIAGLAEAMLKYVFKAVLEERADDMKFFAERVDKDAVSRLERFIEADFAQVDYTDAVTILENCGRKFENPVYWGVDLSSEHERYLAEEHFKAPVVVKNYPKDIKAFYMRLNEDGKTVAAMDVLAPGIGEIIGGSQREERLDVLDERMLEMGLNKEDYWWYRDLRRYGTVPHSGFGLGFERLIAYVTGVQNVRDVIPFPRTPRNASF [P0A8M0]	5.65 ± 0.14 h	5.29 ± 0.32 h	6.11 ± 0.23 h	5.45 ± 0.33 h	3.23 ± 0.51 h	6.37 ± 0.33 h	11.55 ± 0.055 h	5.338 ± 0.0091 h	9.553 ± 0.028 h	6.83 ± 0.74 h	12.9 ± 0.18 h	5.93 ± 0.36 h
